# Results published in paper PMC12847820, “Molecular characterisation of the Bacillus subtilis SpbK antiphage defence system” (Nature Communications, 2025).
# Experiments:
# [1] = molecular target: MBP-SpbK D158R (Bacillus subtilis); test: mass photometry + SEC-MALS; MBP-SpbK wild type and mutants in solution; 10 mM HEPES pH 7.5, 150 mM NaCl; Superdex 200 5/150 Increase for SEC-MALS; self-association
# [2] = molecular target: MBP-SpbK (full-length SpbK as a maltose-binding protein fusion) (Bacillus subtilis); test: as above
# [3] = molecular target: MBP-SpbK G194R (Bacillus subtilis); test: as above
# [4] = molecular target: the molecule itself; test: mass photometry; YonE in solution; 10 mM HEPES pH 7.5, 150 mM NaCl; self-association
molecule,measurement,setting,value
MBP-SpbK D158R (natural protein),stoichiometry N,[1],2
MBP-SpbK (full-length SpbK as a maltose-binding protein fusion) (natural protein),stoichiometry N,[2],2
MBP-SpbK G194R (natural protein),stoichiometry N,[3],2
"YonE (residues 46-506), portal protein of phage SPβ (natural protein, Bacillus subtilis phage SPβ, UniProt O31953 46-506, looked up, YonE, product of the SPβ gene yonE, portal protein; truncated construct lacking the first 45 residues, residues 46-506; Dodecamer by mass photometry and cryo-EM; printed theoretical mass of the dodecamer 665 kDa; also called wild-type YonE; YonE dodecamer; source: E. coli BL21 (DE3), autoinduction, purified (IMAC, SEC); copies: 12) EAEQLKNYFSNPDEFQEEIEDLAQYFYISTAEIHQLFELIEALPTLNYKIDSFNKVKSSDKHISLLNKSLHKVKHKRLTRDLLKQVATAGTLVGIWLGDAKSPYPFIFDEIKYVFPSFRRNGDWVCVVDMELFTKYKDDQRNELLKSLSPYIKQSDYENFMKDREKYRFKELPQERTFPLRTGTLKRNQGLGTSWVTPGLYDVLHKKKLKDVERSIANKIINAVAVLTIGTDKGNGEYTNMKLPKAVKQKIHGGVKTALEKNQKDGVTVVSIPDFADINFPDVKADGLDGAKFDHINSDIQSAYGLSGSLLNGDGGNYATSSLNLDTFYKRIGVLMEDIEQEVYQKLFNLVLPAAQKDNYYMNYDKDKPLTLKEKMDILIKLNDKGWSIKHVVDNLAGVSWESYLEQTLYETEELKLQEKIRPYQTSYTFTGNEVGRPNEGNKNNDNTVKSATSNGNDNPI",stoichiometry N,[4],12
